Legend:
Assay in all cases: mass photometry
[1] = molecular target: SARS-CoV-2 spike, wild-type (Wuhan-hu-1 strain), HexaPro stabilised (K986P, V987P, F817P, A892P, A89 (SARS-CoV-2 (Wuhan-hu-1 strain)) (UniProt P0DTC2))
[2] = molecular target: SARS-CoV-2 spike, Omicron (B.1.1.529 strain), 2P stabilised (SARS-CoV-2 (Omicron B.1.1.529 strain)) (UniProt P0DTC2)
[3] = molecular target: SARS-CoV-2 spike, Omicron (B.1.1.529 strain), HexaPro stabilised (SARS-CoV-2 (Omicron B.1.1.529 strain)) (UniProt P0DTC2)
[4] = molecular target: SARS-CoV-2 spike, wild-type (Wuhan-hu-1 strain), 2P stabilised (K986P, V987P), soluble recombinant (SARS-CoV-2 (Wuhan-hu-1 strain)) (UniProt P0DTC2)

Substance | percent of spike counts that are trimer [1] [%] | stoichiometry N [2] | stoichiometry N [3] | percent of spike with one ACE2 bound [4] [%] | percent of spike with two ACE2 bound [4] [%] | stoichiometry N [4] | percent of spike with two ACE2 bound [1] [%] | stoichiometry N [1]
SARS-CoV-2 spike, wild-type (Wuhan-hu-1 strain), HexaPro stabilised (K986P, V987P, F817P, A892P, A89 (from UniProt P0DTC2 14-1208) (natural protein) | 90 | – | – | – | – | – | – | –
angiotensin-converting enzyme-2 (ACE2) with the neck domain (from UniProt Q9BYF1 18-740) (receptor) | – | < 3 | < 3 | 42 | 8 | < 3 | 7 | < 3
angiotensin-converting enzyme-2 (ACE2) without the neck domain (from UniProt Q9BYF1 18-740) (receptor) | – | < 3 | < 3 | – | – | – | – | –
